Measured values taken from paper PMC5586343, “t‐Darpp is an elongated monomer that binds calcium and is phosphorylated by cyclin‐dependent kinases 1 and 5” (FEBS Open Bio, 2017).

Molecular target: the molecule itself
Experiment: cross-linking; glutaraldehyde 0.1% (v/v) and 1% (v/v), 30 min at 25 °C, then SDS/PAGE; each protein alone and an equimolar mixture of t‐Darpp and Darpp‐32

B1: Darpp‐32 (dopamine‐ and cAMP‐regulated phosphoprotein) (natural protein, human, UniProt Q9UD71-1 1-204, looked up)
chain: MDPKDRKKIQFSVPAPPSQLDPRQVEMIRRRRPTPAMLFRLSEHSSPEEEASPHQRASGEGHHLKSKRPNPCAYTPPSLKAVQRIAESHLQSISNLNENQASEEEDELGELRELGYPREEDEEEEEDDEEEEEEEDSQAEVLKVIRQSAGQKTTCGQGLEGPWERPPPLDESERDGGSEDQVEDPALSEPGEEPQRPSPSEPGT
notes: Darpp‐32, longer isoform of PPP1R1B with 36 additional N-terminal residues compared with t‐Darpp; cDNA amplified from Darpp‐32/pET‐49 and cloned into pET‐28a; source: E. coli BL21 DE3, purified (Ni‐NTA)
**Q.** For B1, which “stoichiometry N” value is on record?
**A.** 2
